Reference: US20200164085A1 (Merck Sharp & Dohme, published 2020)

T1: human CD74 (human, UniProt P04233 1-296)
T1 sequence (looked up): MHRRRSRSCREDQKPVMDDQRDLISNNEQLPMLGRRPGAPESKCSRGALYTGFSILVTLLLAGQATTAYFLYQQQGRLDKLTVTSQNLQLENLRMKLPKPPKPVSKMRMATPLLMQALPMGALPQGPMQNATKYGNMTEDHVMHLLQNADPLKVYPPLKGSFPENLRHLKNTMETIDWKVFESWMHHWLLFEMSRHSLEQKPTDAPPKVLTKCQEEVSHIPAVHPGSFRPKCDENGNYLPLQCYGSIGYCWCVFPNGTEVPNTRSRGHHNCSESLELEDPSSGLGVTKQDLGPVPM


Target: T1, human CD74
Assay: cell-based or functional assay

Row | Binder | EC50, GILZ mRNA, HUT-78 cells [µg/mL] | EC50, GILZ mRNA, SUDHL-6 cells [µg/mL] | Emax, GILZ mRNA, HUT-78 cells | Emax, GILZ mRNA, SUDHL-6 cells
1 | ADC 12-5 (anti-hCD74 (LL1) conjugated to Linker 2-7) (antibody, human IgG1, kappa, V domains shown, position 121 is para-azido phenylalanine (pAzF), conjugated to dexamethasone drug-linker 2-7) VH: QVQLQQSGSELKKPGASVKVSCKASGYTFTNYGVNWIKQAPGQGLQWMGWINPNTGEPTFDDDFKGRFAFSLDTSVSTAYLQISSLKADDTAVYFCSRSRGKNEAWFAYWGQGSLVTVSS VL: DIQLTQSPLSLPVTLGQPASISCRSSQSLVHRNGNTYLHWFQQRPGQSPRLLIYTVSNRFSGVPDRFSGSGSGTDFTLKISRVEAEDVGVYFCSQSSHVPPTFGAGTRLEIKR | 1.32 | 0.4 | 4.13 | 3.4
2 | ADC 12-6 (anti-hCD74 (LL1) conjugated to Linker 3-4) (antibody, human IgG1, kappa, V domains shown, position 121 is para-azido phenylalanine (pAzF), conjugated to dexamethasone drug-linker 3-4) VH: QVQLQQSGSELKKPGASVKVSCKASGYTFTNYGVNWIKQAPGQGLQWMGWINPNTGEPTFDDDFKGRFAFSLDTSVSTAYLQISSLKADDTAVYFCSRSRGKNEAWFAYWGQGSLVTVSS VL: DIQLTQSPLSLPVTLGQPASISCRSSQSLVHRNGNTYLHWFQQRPGQSPRLLIYTVSNRFSGVPDRFSGSGSGTDFTLKISRVEAEDVGVYFCSQSSHVPPTFGAGTRLEIKR | 1.87 | 0.47 | 4.61 | 3.33
3 | ADC 12-7 (anti-hCD74 (LL1) conjugated to Linker 4-3) (antibody, human IgG1, kappa, V domains shown, position 121 is para-azido phenylalanine (pAzF), conjugated to dexamethasone drug-linker 4-3) VH: QVQLQQSGSELKKPGASVKVSCKASGYTFTNYGVNWIKQAPGQGLQWMGWINPNTGEPTFDDDFKGRFAFSLDTSVSTAYLQISSLKADDTAVYFCSRSRGKNEAWFAYWGQGSLVTVSS VL: DIQLTQSPLSLPVTLGQPASISCRSSQSLVHRNGNTYLHWFQQRPGQSPRLLIYTVSNRFSGVPDRFSGSGSGTDFTLKISRVEAEDVGVYFCSQSSHVPPTFGAGTRLEIKR | > 30 | 14.3 | 1.93 | 1.52
4 | ADC 12-9 (anti-hCD74 (LL1) conjugated to Linker 6-2) (antibody, human IgG1, kappa, V domains shown, position 121 is para-azido phenylalanine (pAzF), conjugated to dexamethasone drug-linker 6-2) VH: QVQLQQSGSELKKPGASVKVSCKASGYTFTNYGVNWIKQAPGQGLQWMGWINPNTGEPTFDDDFKGRFAFSLDTSVSTAYLQISSLKADDTAVYFCSRSRGKNEAWFAYWGQGSLVTVSS VL: DIQLTQSPLSLPVTLGQPASISCRSSQSLVHRNGNTYLHWFQQRPGQSPRLLIYTVSNRFSGVPDRFSGSGSGTDFTLKISRVEAEDVGVYFCSQSSHVPPTFGAGTRLEIKR | > 30 | > 30 | 2.55 | 6.48
5 | ADC 12-10 (anti-hCD74 (LL1) conjugated to Linker 9-4) (antibody, human IgG1, kappa, V domains shown, position 121 is para-azido phenylalanine (pAzF), conjugated to budesonide drug-linker 9-4) VH: QVQLQQSGSELKKPGASVKVSCKASGYTFTNYGVNWIKQAPGQGLQWMGWINPNTGEPTFDDDFKGRFAFSLDTSVSTAYLQISSLKADDTAVYFCSRSRGKNEAWFAYWGQGSLVTVSS VL: DIQLTQSPLSLPVTLGQPASISCRSSQSLVHRNGNTYLHWFQQRPGQSPRLLIYTVSNRFSGVPDRFSGSGSGTDFTLKISRVEAEDVGVYFCSQSSHVPPTFGAGTRLEIKR | 0.2 | 0.21 | 6.47 | 5.89
6 | ADC 12-4 (anti-hCD74 (LL1) conjugated to Linker 1-4) (antibody, human IgG1, kappa, V domains shown, position 121 is para-azido phenylalanine (pAzF), conjugated to dexamethasone drug-linker 1-4) VH: QVQLQQSGSELKKPGASVKVSCKASGYTFTNYGVNWIKQAPGQGLQWMGWINPNTGEPTFDDDFKGRFAFSLDTSVSTAYLQISSLKADDTAVYFCSRSRGKNEAWFAYWGQGSLVTVSS VL: DIQLTQSPLSLPVTLGQPASISCRSSQSLVHRNGNTYLHWFQQRPGQSPRLLIYTVSNRFSGVPDRFSGSGSGTDFTLKISRVEAEDVGVYFCSQSSHVPPTFGAGTRLEIKR | 1.08 | 0.99 | 3.95 | 3.44
